Target: T1, hPCSK9 (Homo sapiens, UniProt Q8NBP7)
T1 construct: purchased Sino Biologicals, China
Test: hPCSK9 challenge model (hepatic LDL-R expression in mice, Western Blot)
Format: in vivo, mouse
Conditions: healthy control 100%, hPCSK9 alone 0%, dose of inhibitor 22 nmol/kg
Procedure: The aim of this study was to show the change in the LDL receptor expression level in mouse liver in response to inhibiting the action of intravenously injected hPCSK9 with an anti-PCSK9 peptide.
Healthy male BalBC or NMRI mice (Charles River, Germany) are injected with an anti-PCSK9 peptide, either s.c. or i.v. 15-120 minutes before injecting hPCSK9 (Sino Biologicals, China) intravenously in the tail vein at a dose of 0.4 mg/kg. Sixty minutes after the injection of hPCSK9, the animals are anaesthetised in isoflurane and euthanised by cervical dislocation. The liver is then quickly excised and snapfrozen in liquid nitrogen. The livers are kept at −80 degrees celsius until analysis.
The proteins were transferred to nitrocellulose membranes (iBlot 2 NC Regular stacks, novex # IB23001) according to manufacturer's instructions (Life Technology). Equal protein transfer was confirmed by Ponceau S (Sigma, P7170) staining of the membranes and the membranes were further blocked in blocking buffer (TBS-T, 2% Tween). […] Quantitative analysis of chemiluminescent signals from Western blots was done with MultiGauge software (Fujifilm).
“Vehicle-vehicle” is the group of healthy controls (baseline level), “vehicle-hPCSK9” is the group injected with hPCSK9 alone.

T1 sequence (Q8NBP7 153-692): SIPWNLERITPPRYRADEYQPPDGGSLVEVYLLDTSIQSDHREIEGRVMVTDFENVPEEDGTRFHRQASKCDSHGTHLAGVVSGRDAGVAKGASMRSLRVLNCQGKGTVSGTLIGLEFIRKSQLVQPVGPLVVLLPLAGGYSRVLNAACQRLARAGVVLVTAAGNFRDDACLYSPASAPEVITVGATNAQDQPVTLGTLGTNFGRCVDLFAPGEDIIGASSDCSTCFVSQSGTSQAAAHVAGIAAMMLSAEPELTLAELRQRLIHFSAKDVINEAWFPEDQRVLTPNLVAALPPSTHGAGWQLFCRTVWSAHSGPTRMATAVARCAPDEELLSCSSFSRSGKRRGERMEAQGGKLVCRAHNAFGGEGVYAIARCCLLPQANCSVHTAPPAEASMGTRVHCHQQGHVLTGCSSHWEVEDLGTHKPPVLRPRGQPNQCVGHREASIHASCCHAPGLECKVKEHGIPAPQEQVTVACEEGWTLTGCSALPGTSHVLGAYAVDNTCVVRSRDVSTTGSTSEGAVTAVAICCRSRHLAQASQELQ

- Percentage of baseline: 157%
Substance: Alirocumab: anti-PCSK9 antibody, control molecule in the hPCSK9 challenge model

Reference: patent US20200165313A1, “EGF(A) ANALOGUES, PREPARATION, FORMULATIONS AND USES THEREOF” (Novo Nordisk A/S, priority 2017, published 2020)
